Test results from patent US7070943B2 (priority 1998, dated 2006).

Columns and labels:
Type in all cases: cell-based, Human
underphosphorylated pRB = assay: pRB phosphorylation in U937 cells, anti-pRB^P− mAb flow cytometry; details: U937, 170 nM
Text: (§1) Also shown are cells from the culture at higher cell density (>10^6 cells/ml) where proliferation declined because of cell crowding (d). The cells reacting with anti-pRB^P− were in G0/1 phase (open arrows). The dashed line indicates the upper level of background fluorescence, i.e. of the cells pretreated with alkaline phosphatase. The percentage of cells reacting with anti-pRB^P− mAb was increased in the ONCONASE®-treated and crowded cultures compared to the control. No significant changes in expression of pRB detected by the antibody that reacts with this protein regardless of its phosphorylation status (anti-pRB^T) were observed between ONCONASE®-treated and control cells (not shown).
(§2) The status of phosphorylation of pRB in individual cells was monitored using a combination of anti-pRB antibodies, one specifically detecting underphosphorylated pRB (anti-pRb^P− mAb) and another which reacts with total pRB, regardless of its phosphorylation (anti-pRB^T mAb). […] The cells were then rinsed with PBS containing 1% BSA and their pRB associated green (anti-pRB^P−) and red (anti-PRB^T) fluorescence was measured by flow cytometry.
(§3) Cellular fluorescence was measured with the ELITE ESP flow cytometer/cell sorter (Coulter, Miami, Fla., USA) using either argon ion laser (emission at 488 nm) alone or combined with helium-cadmium laser (emitting UV light). […]

total pRB = assay: Total pRB in U937 cells, anti-pRB^T mAb flow cytometry
Text: as §1, §2, §3

cyclin E = assay: Cyclin E expression by multiparameter flow cytometry in U937 cells; details: U937 cells growing in presence of drug
Description: (§4) Following incubations in the absence or presence of ONCONASE®, the cells were washed with phosphate-buffered saline (PBS) and fixed in suspension in either ice-cold 80% ethanol or absolute methanol for up to 24 h. After fixation, the cells were washed twice with PBS and then suspended in 1 ml of 0.25% Triton X-100 (Sigma, St. Louis, Mo., USA) in PBS on ice for 5 min. The cells were then centrifuged (300 g, 5 min), the cell pellet suspended 100 μl PBS containing 0.5 μg of the anti-cyclin (or anti-CKI) mAb and 1% bovine serum albumin (BSA; Sigma), and incubated for 2 h at room temperature. […]
(§5) Cellular fluorescence was measured with the ELITE ESP flow cytometer/cell sorter (Coulter, Miami, Fla., USA) using either argon ion laser (emission at 488 nm) alone or combined with helium-cadmium laser (emitting UV light). In the first case, fluorescence signals were collected using the standard configuration of the flow cytometer (green fluorescence, representing directly or indirectly FITC-labeled antibodies; red fluorescence representing CYCHROME® tagged anti-pRB^T mAb). In the second case, DNA content was analyzed based on DAPI fluorescence (blue emission) excited by UV light, while the anti-pRB^P− mAb (FITC) and anti-pRB^T (Cy-Chrome®) related emission was excited with blue light laser.

cyclin D3 [1] = assay: Western blot of cyclin D3 in U937 cells; details: U937, 48 h
Description: (§6) Anti-cyclin D3 mAb immunofluorescence in combination with DNA content was measured by multiparameter flow cytometry (a). The cells were growing either in the absence (Exp, exponential growth) or in the presence of 170 nM ONCONASE® for 48 hours (Onc). There were 48%, 38% and 14% of cells in G1, S, and G2/M in Exp culture compared with 64%, 24% and 13% cells in G1, S, and G2/M, respectively, in Onc culture. The scattergrams represent bivariate distributions of the cells with respect to their cyclin D3 vs. DNA content associated fluorescence intensities. The upper level of the isotype-matched control (mean fluorescence+3 standard deviations) is marked in the Exp panel with a dashed line. The bar plots represent the mean FITC (anti-cyclin D3 mAb) fluorescence values (arbitrary units) of the cells in different phases of the cycle (gated based on differences in DNA content as shown in the Exp panel), after subtraction of the background fluorescence, i.e., mean fluorescence of the same cells but stained with isotype-matched control IgG antibody. Western blots (b) show expression of cyclin D3 in control culture and in the culture treated with Onconase 48 h;
To reveal specificity of the antibodies that were used, a standard immunoblotting procedure was used on cellular lysates.

cyclin D3 [2] = assay: Cyclin D3 expression by multiparameter flow cytometry in U937 cells; details: U937, 170 nM
Description: as §6, with “The cells were growing either in the absence (Exp, exponential growth) or in the presence of 170 nM ONCONASE® for 48 hours (Onc).” left out, “Western blots (b) show expression of cyclin D3 in control culture and in the culture treated with Onconase 48 h;” left out
Cellular fluorescence was measured with the ELITE ESP flow cytometer/cell sorter (Coulter, Miami, Fla., USA) using either argon ion laser (emission at 488 nm) alone or combined with helium-cadmium laser (emitting UV light). […] In the second case, DNA content was analyzed based on DAPI fluorescence (blue emission) excited by UV light, while the anti-pRB^P− mAb (FITC) and anti-pRB^T (Cy-Chrome®) related emission was excited with blue light laser.

p16^INK4a = p16^INK4a expression by flow cytometry in U937 cells; details: U937, 170 nM, 72 hours
Description: Proportions of cells in different phases of the cycle were the same as in FIG. 12;
as §4, §5

B1: ONCONASE®: basic protein of 12,000 MW isolated from oocytes or early embryos of Rana pipiens, homologous to pancreatic RNase A (protein, UniProt P22069 1-104, looked up)
Protein P-30: QDWLTFQKKHITNTRDVDCDNIMSTNLFHCKDKNTFIYSRPEPVKAICKGIIASKNVLTTSEFYLSDCNVTSRPCKYKLKKSTNKFCVTCENQAPVHFVGVGSC
For B1, the “proportion of cells stainable with anti-pRB^P−” value (underphosphorylated pRB; 48 h (control 2.4%)) was 40.5%, the “proportion of cells stainable with anti-pRB^P−” value (underphosphorylated pRB; 72 h (control 2.4%)) was 43.3% and the “effect on total pRB (anti-pRB^T)” value (total pRB) was “no effect”. For the same molecule, the “expression of cyclin E” value (cyclin E) was “not significantly changed”, the “expression of cyclin D3, Western blot” value (cyclin D3 [1]) was “decrease in expression of cyclin D3” and the “decrease of overall level of cyclin D3” value (cyclin D3 [2]; after 24 h) was “about 20%”. For the same molecule, the “reduction of overall level of cyclin D3” value (cyclin D3 [2]; after 48 hours) was “over 70%” and the “increase in level of p16^INK4a” value (p16^INK4a) was “over six-fold”.
